From article PMC5279944

Key:
[1] = molecular target: plasma fibronectin purified from Fn1^syn/syn mice (pFN^syn) (mouse)
[2] = molecular target: plasma fibronectin purified from Fn1^syn/syn mice (pFN^syn) (mouse); remark: listed apart in the source
[3] = molecular target: plasma fibronectin purified from Fn1^syn/syn mice (pFN^syn) (mouse); remark: listed apart in the source
[4] = molecular target: plasma fibronectin purified from Fn1^syn/syn mice (pFN^syn) (mouse); assay: cross-linking; serum-starved Fn1-KO fibroblasts seeded (15, 30 and 60 min) on pFN-coated glass coverslips, spun or not spun; 1 mM DTSSP 15 min at 4°C; cross-linked fraction released with 25 mM DTT, α5 integrin western blot; cross-linked over total integrin

| adhesion strength (τ50, spinning disk) of Fn1-KO cells on pFN^syn compared to pFN^wt [1] [% decrease] | pY397-FAK level in Fn1-KO cells plated on pFN^syn compared to pFN^wt [2] [% decrease] | mean spreading area of Itgb3^-/- platelets seeded for 60 min on pFN^syn [3] [μm^2] | α5 integrin crosslinked to FN, percent of that on pFN^wt [4] [%] | adhesion of wild-type platelets under shear flow (1000/s, 10 min), pFN^syn compared to pFN^wt (fold reduction) [3] | Substance |
| --- | --- | --- | --- | --- | --- |
| 16 | 54 | 3.8 | 60 |  | α5β1 integrin, endogenous on mouse cells (Fn1-KO fibroblasts) (from UniProt P11688 45-1053; P09055 21-798) (receptor) |
|  |  |  |  | 10 | αIIbβ3 integrin on mouse platelets (from UniProt Q9QUM0 32-1033; O54890 26-787) (receptor) |
